Reference: the RNAGym collection of RNA variant scans (doi:10.1073/pnas.2313332121)
Fewer inactive variants are shown than the library holds.

B1: TPR 5TU (parent)
chain: GGAUCUUCUCGAUCUAACAAAAAAGACAAAUCUGCCACAAAGCUUGAGAGCAUCUUCGGAUGCAGAGGCGGCAGCCUUCGGUGGCGCGAUAGCGCCAACGUUCUCAACUAUGACACGCAAAACGCGUGCUCCGUUGAAUGGAGUUUAUCAUG

Variants of: B1
Experiment: polymerase ribozyme fitness, log enrichment relative to wild type (log ratio); higher = more active; in vitro selection for triplet polymerase activity
Outline: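 Both subunits of a heterodimeric triplet polymerase ribozyme were given their own mutant library, built by PCR and transcribed. Each library was annealed with a biotinylated primer, the partner subunit and triplets, incubated frozen at −7 °C, and its extended constructs gel-excised, captured on streptavidin beads and amplified by RT-PCR, all in one round done in triplicate. Fitness is the logarithm of genotype enrichment relative to wild-type enrichment, with replicates averaged by inverse-variance weighting. That logarithm is base 2, and Illumina-sequenced genotypes needed ≥10 input reads and ≥1 read per output.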

Variant | polymerase ribozyme fitness (log ratio)
GGAUCUUCUCGAUCUAACAAAAAAGACAAAUCUGCCACAAAGCUUGAGAGCAUCUUUGGAUGCAGAGGCGGCAGCCUUCGGUGGCGCGAUGGCGCCGACGUUCUCAACUAUGACACGCAAAACGCGUGCUCCGUAGAAUGGAAUUUAUCAUG [C57U A91G A97G U135A G143A] | ≤ -4.2
GGAUCUUCUCGAUCUAACAAAAAAGACAAAUCUGCCACAAAGCUUGAGAGCAUCUUUGGAUGCAGAGGCGGCAGCCUUCGGUGGCGCGAUAGCGCCGACGUUCUCAACUAUGACACGCAAAACGCGUCCUCCGUUGAAUGCAGUUUAUCAUG [C57U A97G G128C G141C] | -3.99
GGAUCUUCUCGAUCUAACAAAAAAGACAAAUCUGCCACAAAGCUUGAGAGCAUCUUGGGAUGCAGAGGCGGCAGCCUUCGGUGGCGCGAUAGCGCCAACGUUCUCAACUAUGACACGCAAAACGCGUGCUCCGUUGAAUGGACUUUAUCAUG [C57G G143C] | -1.72
GGAUCUUCUCGAUCUAACAAAAAAGACAAAUCUGCCACAAAGCUUGAGAGCAUCUUGGGAUGCAGAGGCGGCAGCCUUCGGUGGCACGAUAGCGCCAACGUUCUCAACUAUGACACGCAAAACGCGUGCUCCGUUGAAUGGAGUUUAUCAUG [C57G G86A] | -1
GGAUCUUCUCGAUCUAACAAAAAAGACAAAUCUGCCACAAAGCUUGAGAGCAUCUUGGGAUGCAGAGGCGGCAGCCUUCGGUGGCCCGAUAGCGCCAACGUUCUCAACUAUGACACGCAAAACGCGUGCUCCGUUGAAUGGAGUUUAUCAUG [C57G G86C] | -3.04
GGAUCUUCUCGAUCUAACAAAAAAGACAAAUCUGCCACAAAGCUUGAGAGCAUCUUGGGAUGCAGAGGCGGCAGCCUUCGGUGGCGCGAUAUCGCCAACGUUCUCAACUAUGACACGCAAAACGCGUGCUCCGUUGAAUGGAGUUUAUCAUG [C57G G92U] | -0.526
GGAUCUUCUCGAUCUAACAAAAAAGACAAAUCUGCCACAAAGCUUGAGAGCAUCUUUGGAUGCCGAGGCGGCAGCCUUCGGUGGCGCGUUAGCGCCAACGUUCUCAACUAUGACACGCAAAACGCGUUCUCCGUUGAAUGGAGUUUAACAUG [C57U A64C A89U G128U U148A] | ≤ -4.2
GGAUCUUCUCGAUCUAACAAAAAAGACAAAUCUGCCACAAAGCUUGAGAGCAUCUUUGGAUGCAGAGGCGGCAGCCUUCGGUGGCGCGAUAGCGCCGACGUUCUCAACUAUGACACGCAAAACGCGUGCUCCGUUGAAUGGAGUUUAUCAUG [C57U A97G] | -0.11
GGAUCUUCUCGAUCUAACAAAAAAGACAAAUCUGCCACAAAGCUUGAGAGCAUCUUUGGAUGCAGCGGCGGCAGCCUUCGGUGGCGCGAUAGCGCCAACGUUCUCAACUAUGACACGCAAAACGCGUGCUCCGUUGAAUGGAGUUUAUCAUG [C57U A66C] | -3.93
GGAUCUUCUCGAUCUAACAAAAAAGACAAAUCUGCCACAAAGCUUGAGAGCAUCUUUGGAUGCAGAGGCGGCAGCCUUCGGUGGCGCGAUAGCGCCAACGUUCUCAACUAUGACACGCAAAACGCGUGCUCCGUUGAUUGGAGUGUAUCAUG [C57U A138U U145G] | -3.98
GGAUCUUCUCGAUCUAACAAAAAAGACAAAUCUGCCACAAAGCUUGAGAGCAUCUUGGGAUGCAGAGGCGGCAGCCCUCGGUGACGCGAUAGCGCCAACGUUCUCAACUAUGACACGCAAAACGCGUGCUCCGAUGAAUGGAGUUUAUCAUG [C57G U77C G84A U134A] | ≤ -4.2
GGAUCUUCUCGAUCUAACAAAAAAGACAAAUCUGCCACAAAGCUUGAGAGCAUCUUGGGAUGCAGAGGCGGCAGCCUUCGGUGUCGCGCUAGCGCCAACGUUCUCAACUAUCACACGCAAAACGCGUGCUCCGUUGAACGGAGUUUAUAAUG [C57G G84U A89C G112C U139C C149A] | ≤ -4.2
GGAUCUUCUCGAUCUAACAAAAAAGACAAAUCUGCCACAAAGCUUGAGAGCAUCUUGGGAUGCAGAGGCGGCAGCCUUCGGUGGCGCGAUAGCGCCAACGUUCUCAACUAUGACACGCAAAACGCGUGCUCCGUUGAAUGAAGUUUAUCAUG [C57G G141A] | 0.453
GGAUCUUCUCGAUCUAACAAAAAAGACAAAUCUGCCACAAAGCUUGAGAGCAUCUUUGGAUGCAGAGGCGGCGGCCUUCGGUGCCGCGAUAGCGACAACGUUCUCAACUAUGACACGGAAAACGCGUGCUCCGUUGAAUGGAGUUUAUCAUG [C57U A73G G84C C95A C118G] | -2.62
GGAUCUUCUCGAUCUAACAAAAAAGACAAAUCUGCCACAAAGCUUGAGAGCAUCUUGGGAUGCAGAGGCGGCAGCCUUCGGUGGCACGAUAGCGUCAAUGUUCUCAACUAUGACACGCAAAACGCGUGCUCCGUUGAAUGUAGUUUAUCAUG [C57G G86A C95U C99U G141U] | -3.92
GGAUCUUCUCGAUCUAACAAAAAAGACAAAUCUGCCACAAAGCUUGAGAGCAUCUUUGGAUGCAGAGGGGGCAGCCUUCGGUGAGGCGAUAGCGCCAACGUUCUCAACUAUGACACGCAAAACGCGUGCUCCGUUGAAUGGAGUUUAUCAUG [C57U C69G G84A C85G] | ≤ -4.2
GGAUCUUCUCGAUCUAACAAAAAAGACAAAUCUGCCACAAAGCUUGAGAGCAUCUUGGGAUGCAGAGGCGGCAGCCUACGGUGACGCGAUAGCCCCAACGUUUUAAACUAUGACACGCAAAACGCGUGCUCCUUUGAAUUGAGCUUAUCAUG [C57G U78A G84A G94C C103U C105A G133U G140U U144C] | ≤ -4.2
GGAUCUUCUCGAUCUAACAAAAAAGACAAAUCUGCCACAAAGCUUGAGAGCAUCUUGGGAUGCAGAGGCGGCAGCCUUCGGUGACGCGAUAGCGCCAACGUUUUCAACUGUGACACGCAAAACGCGUGCUCCGUUGAAUGGAGUUUAUCAUG [C57G G84A C103U A110G] | -3.52
GGAUCUUCUCGAUCUAACAAAAAAGACAAAUCUGCCACAAAGCUUGAGAGCAUCUUUGGAUGCAGAGGCGGCAGCCUUCGGUGGCGCGAUCGCGCCAACGUUCUCAACUAUGACACGCAAAACGCGUGCUCCGUUGAAUGGAGUUUAUCAUG [C57U A91C] | ≤ -4.2

Variant | polymerase ribozyme fitness (log ratio)
GGAUCUUCUCGAUCUAACAAAAAAGACAAAUCUGCCACAAAGCUUGAGAGCAUCUUUGGAUGCAGAGGCGGCAGCCUUCGGUGGCGCGAUGGCGCCAACGUUCUCAACUAUGACACGCAAAACGCGUGCUCCGUUGAAUGGAGUUUAUCAUG [C57U A91G] | -2.92
GGAUCUUCUCGAUCUAACAAAAAAGACAAAUCUGCCACAAAGCUUGAGAGCAUCUUUGGAUGUAUAGGCGGCAGCCUUCGGUGGCGCAAUAGCGCCAACGUUCUCAACUAUGACACGCAAAACGCGUGCUCCGUUGAUUGGAGUUUAUCAUG [C57U C63U G65U G88A A138U] | ≤ -4.2
GGAUCUUCUCGAUCUAACAAAAAAGACAAAUCUGCCACAAAGCUUGAGAGCAUCUUGGGAUGCAGAGGCGGCAGCCUUCGGUGGCGCGAUAGCCCCAGCGUUCUUAACUAUGACACGCAAAACGCGUGCUCCGUUGAAUGGAGUUUAUCAUG [C57G G94C A98G C105U] | -0.386
GGAUCUUCUCGAUCUAACAAAAAAGACAAAUCUGCCACAAAGCUUGAGAGCAUCUUUGGAUGCAGAGGCGGCAGCCUUCGGUGGCGCGAUAGCGCCAACGUUCUCAACUGUGACACGCAAAACGCGUGCUCCGUUGAAUGGAGUUUAUCAUG [C57U A110G] | -2.85
GGAUCUUCUCGAUCUAACAAAAAAGACAAAUCUGCCACAAAGCUUGAGAGCAUCUUUGGAUGCAGAGGCGGCAGUCUUCGGUGGCGCGAUAGCGCCAACGUUCUCAACUAUGACACGCAAAACGCGUGCUCCGUUGAAUGGAGUUUAUCAUG [C57U C75U] | 0.237
GGAUCUUCUCGAUCUAACAAAAAAGACAAAUCUGCCACAAAGCUUGAGAGCAUCUUUGGAUGCAGAGGCGGCAGGCUUCGGUGGCGCGAUAGCGCCAACGUUCUCAACUAUGACACGCAAAACGCGUGCUCCGUUGAAUGGAGUUUAUCAUG [C57U C75G] | -3.63
GGAUCUUCUCGAUCUAACAAAAAAGACAAAUCUGCCACAAAGCUUGAGAGCAUCUUGGGAUGCAGAGGCGGCAGCCUUCGGAGGCGCGAUAGCGCCAGCGUUCUCAACUAUGACACGCAAAACGCGUGCUCCGUUGAAUGGAGUUUAUCAUG [C57G U82A A98G] | -3.69
GGAUCUUCUCGAUCUAACAAAAAAGACAAAUCUGCCACAAAGCUUGAGAGCAUCUUUGGAUGCAGAGGCGGCAGCAUUCGGUGGCGCGAUAGUGCCAACGUUCUCAACUAUGACAAGCAAAACGCGUGCUCCGUUGAAUGGAGUUUAUCAGG [C57U C76A C93U C116A U151G] | ≤ -4.2
GGAUCUUCUCGAUCUAACAAAAAAGACAAAUCUGCCACAAAGCUUGAGAGCAUCUUGGGAUGCAGAGGCGGCAGCCUUCGGUGGCGCGAUAGCACCAACGUUCUCAACUAUGACACGCAAAACGCGUGCUCCGUUGAAUGCAGUUUAUCAUG [C57G G94A G141C] | -0.316
GGAUCUUCUCGAUCUAACAAAAAAGACAAAUCUGCCACAAAGCUUGAGAGCAUCUUGGGAUGCAGAGGCGGCAGCCUUCGGUGUCGCGAUAGCGCCAACGUUCUCAACGAUGACACGCAAAACGCGUGCUCCGUUUAAUGGAGUUUAUCAUG [C57G G84U U109G G136U] | -3.84
GGAUCUUCUCGAUCUAACAAAAAAGACAAAUCUGCCACAAAGCUUGAGAGCAUCUUUGGAUGCAGAGGCGGCAGCCUUCGGUGGCGCGAUAGCGCCAACGUUCUCAACUAUGACACGCAAAACGCGUGCUCCGUUGAAUGGAGUUUAUCAUG [C57U] | -0.0371
GGAUCUUCUCGAUCUAACAAAAAAGACAAAUCUGCCACAAAGCUUGAGAGCAUCUUGGGAUGCAGAGGCGGCAGCCUUCGGUGGCGCGAUAGCGCCAACGUUCUCAACUAUGACACGCAAAACGCGUGCUCCGUUGAAUGGAGUUAAUCAUG [C57G U146A] | -0.273
GGAUCUUCUCGAUCUAACAAAAAAGACAAAUCUGCCACAAAGCUUGAGAGCAUCUUUGGAUGCUGAGGCGGCAGCCUUCGGUGGCGCGAUAGCGCCAACGUUCUCAACUAUGAUACGCAAAACGCGUGCUCCGUUGAAUGGAGUUUAUCAUG [C57U A64U C114U] | ≤ -4.2
GGAUCUUCUCGAUCUAACAAAAAAGACAAAUCUGCCACAAAGCUUGAGAGCAUCUUUGGAUGCAGAGGCGGCAGCCUUCGGUGGCGCGAUAGCGCCAACGUUCUCAACUAUGCCACGCAAAACGCGUGCUCCGUUGAAUGGAGUUUAUCAUG [C57U A113C] | -2.27
GGAUCUUCUCGAUCUAACAAAAAAGACAAAUCUGCCACAAAGCUUGAGAGCAUCUUUGGAUGCAGCGGCGGCAGCCUUCGGUGGCGCGAUAUAGCCAACGUUCUCAACUAUGACACGCAAAACGCGUGCUCCGUUGAAUGGAGUUUAUCAUG [C57U A66C G92U C93A] | ≤ -4.2
GGAUCUUCUCGAUCUAACAAAAAAGACAAAUCUGCCACAAAGCUUGAGAGCAUCUUGGGAUGCAGAGGCGGCAGCCUUCGGUGGCGCAAUAGCGCUAACGUUCUCAACUAUGACACGCAAAACGCGUGCUCCGUUGAACGGGGUUUAUCAUG [C57G G88A C96U U139C A142G] | ≤ -4.2
GGAUCUUCUCGAUCUAACAAAAAAGACAAAUCUGCCACAAAGCUUGAGAGCAUCUUUGGAUGCAGAGGCGGCAGCCUUCGGUGGCGCGAUAGCGCCAACGUUCUCAACUAUGACACGCAAAACGCGUGCUCCGUUGAAUGGCGUUUAUCAUG [C57U A142C] | -0.377
GGAUCUUCUCGAUCUAACAAAAAAGACAAAUCUGCCACAAAGCUUGAGAGCAUCUUUGGAUGCAGAGGCGGCAGCCUUCGGUGGCGCGAUUGCGCCAACGUGCUCAACUAUGACACGCAAAACGCGUGCUCCGUUGAAUGGAGUUUAUCAUU [C57U A91U U102G G152U] | -3.9
GGAUCUUCUCGAUCUAACAAAAAAGACAAAUCUGCCACAAAGCUUGAGAGCAUCUUUGGAUGCAGAGGCGGCAGUCUUCGGUGGCGCGAUAGCGCCAACGUUCUCAUCUAUGACACGCAAAACGCGCGCUCCGUUGAAUGGAGUUUAUCGUG [C57U C75U A107U U127C A150G] | ≤ -4.2
